{"source": "patent US20200206304A1", "about": "“METHODS AND COMPOSITIONS FOR EFFICIENT DELIVERY THROUGH MULTIPLE BIO BARRIERS” (Cedars-Sinai Medical Center, priority 2017, published 2020)", "system": "brain parenchyma", "experimental": "To determine how nanoconjugate-associated fluorescence relates to the anatomy of the vasculature, the distance of each analyzed ROI was manually measured from the nearest blood vessel wall (using line tool in FIJI). For tumor bearing mice, 5 images per tumor tissue and 5 per brain tissue were analyzed for each mouse. Intensity values were then plotted against the location of the blood vessel wall and summarized in scatterplots (e.g., FIG. 14B).\nDrug concentrations are listed with regard to total nanoconjugate content systemically injected. […] Referring to FIG. 14B, fluorescence measurements were obtained from 10 μm^2-sized regions of interest (ROI) that were randomly overlaid on regions devoid of vasculature shown as yellow squares on photograph 1 of FIG. 14A. Intensity measurements and positions were then obtained for each ROI and plotted against the location of the nearest blood vessel wall. FIG. 14C is set of charts: chart 1—Cortex; chart 2—Midbrain and chart 3 Hippocampus, illustrating average nanoconjugate fluorescence in the brain parenchyma measured following injections at four different drug concentrations. In this figure, fluorescence is shown as relative fluorescence, which is the measured nanoconjugate fluorescence after subtraction of autofluorescence imaged from PBS injected animals using similar acquisition settings.\nFIG. 14B explores this relationship in a plot from all of the measurements (for each condition: 4 mice, 3-4 sections with 20 random measurements each). All fluorescence intensity measurements were conducted with 10 μm^2-sized regions of interest placed outside of tomato-lectin stained blood vessels (ROI as in Photograph 1 of FIG. 14A); the positions of these ROIs were then measured against the location of the nearest blood vessel wall to produce the scatterplot in FIG. 14B.\nThe resulting data were used as a metric to examine how well the mini nanodrug was able to travel from the vessels into the surrounding parenchyma and encounter brain cells. […] Nanoconjugate diffused fluorescence intensity vs. ‘distance from vasculature’ measurements in brain parenchyma of mice injected with nanoconjugates at a dose of 0.274 μmol/Kg. Fluorescence measurements were obtained from […] regions of interest (ROI) that were randomly overlaid on regions devoid of vasculature (shown by yellow squares in FIG. 22A). Intensity measurements and positions were then obtained for each ROI and plotted against the location of the nearest blood vessel wall.", "note": "Like-named read-outs stand apart in the source and are kept apart here."}
{"substance": "PMLA/LLL/AP2/rhodamine [P/LLL/AP2]", "values": [{"measurement": "fluorescence intensity decrease (slope), linear regression vs distance from vessel", "setting": "0.274 μmol/kg, 120 min", "value": "−0.272±0.07"}, {"measurement": "γ-intercept of linear regression, fluorescence vs distance", "setting": "0.274 μmol/kg, 120 min", "value": "17.49±0.8"}, {"measurement": "γ-intercept of linear regression, fluorescence vs distance", "setting": "0.068 mol/kg, 120 min", "value": "6.342±0.34"}, {"measurement": "cortex Y intercepts of fluorescence vs distance curves (exponential fits)", "setting": "cortex, 0.274 μmol/Kg", "value": 14.7}]}
